Data reported in patent US20150239950A1 (SALK INSTITUTE FOR BIOLOGICAL STUDIES, published 2015).
Where two headings read alike, the source gives them in different places. One block for each binder: values may come before it.

B1: BMP2/BMP6 heterodimer (ligand)
chain 1: QAKHKQRKRLKSSCKRHPLYVDFSDVGWNDWIVAPPGYHAFYCHGECPFPLADHLNSTNHAIVQTLVNSVNSKIPKACCVPTELSAISMLYLDENEKVVLKNYQDMVVEGCGCR
chain 2: MQQSRNRSTQSQDVARVSSASDYNSSELKTACRKHELYVSFQDLGWQDWIIAPKGYAANYCDGECSFPLNAHMNATNHAIVQTLVHLMNPEYVPKPCCAPTKLNAISVLYFDDNSNVILKKYRNMVVRACGCH
notes: also called B2/B6
B4: ActRIIb-ECD (extracellular domain of mouse ActRIIb, residues 1-98) (receptor, UniProt P27040 19-137, looked up)
chain: SGRGEAETRECIYYNANWELERTNQSGLERCEGEQDKRLHCYASWRNSSGTIELVKKGCWLDDFNCYDRQECVATEENPQVYFCCCEGNFCNERFTHLPEPGGPEVTYEPPPTAPTLLT
notes: extracellular domain; also called type II receptor ECD
B5: BMPRIa-ECD (extracellular domain of human BMPRIa, residues 1-129) (receptor, UniProt P36894 24-152, looked up)
chain: QNLDSMLHGTGMKSDSDQKKSENGVTLAPEDTLPFLKCYCSGHCPDDAINNTCITNGHCFAIIEEDDQGETTLASGCMKYEGSDFQCKDSPKAQLRRTIECCRTNLCNQYLQPTLPPVVIGPFFDGSIR
notes: extracellular domain; also called type I receptor ECD

How the values were obtained:
[1] = target: T1, ActRII-ECD (extracellular domain of mouse ActRII, residues 1-102) (mouse, UniProt P27038 20-135); experiment: native-PAGE receptor ECD saturation assay, 5 µg ActRII-ECD with 10 µg ligand, Coomassie densitometry
T1 construct: extracellular domain; also called type II receptor ECD
T1 sequence (P27038 20-135): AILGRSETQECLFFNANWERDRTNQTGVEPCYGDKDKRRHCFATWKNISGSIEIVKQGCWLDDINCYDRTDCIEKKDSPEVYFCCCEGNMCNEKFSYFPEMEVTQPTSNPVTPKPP

[2] = target: B4; experiment: SPR, receptor binding affinity
[3] = target: T1, ActRII-ECD (extracellular domain of …); experiment: SPR (BIAcore), receptor ECD immobilized, ligand flowed; KD = koff/kon; single trial
Experimental: (§1) The receptors were immobilized to the chip surface with the ligands flowed over the surface. The data were fit to a kinetic model (1:1 Langmuir binding with mass transfer) in which KD is calculated as koff/kₒₙ. The table reports data from a single trial.

[4] = target: B4; experiment: SPR (BIAcore), receptor ECD immobilized, ligand flowed; KD = koff/kon
Experimental: (§2) The affinity of the ligands to BMPRIa, ActRII, and ActRIIb was monitored by using a Biacore 3000 (GE Healthcare) and the data were analyzed by using BlAevaluation software ver. 4.1 (GE Healthcare). Using primary amine coupling, receptor ECDs were immobilized on a CM5 chip. The receptors were immobilized independently on flow cells 2-4 for 10 minutes at a flow rate of 5 μL/min and a concentration of 20 μM in 10 mM Na acetate, pH 4.0. Flow cell 1 was left blank, no immobilized protein, as a negative control. […] A minimum of five concentrations, plus a zero concentration, were run per sample for kinetic analysis and the data were fit by using a global 1:1 Langmuir binding with mass transfer.
(§3) Ligand affinity data from BIAcore experiments. The BIAcore data is shown as the dissociation rate, koff, and the association rate, kₒₙ, based on a global fit using the kinetic model 1:1 Langmuir binding with mass transfer. The binding constant KD is calculated as koff/kₒₙ. The receptors were immobilized to the chip surface, with the ligands flowed over the surface.

[5] = target: T1, ActRII-ECD (extracellular domain of …); experiment: SPR (BIAcore), receptor ECD immobilized, ligand flowed; 1:1 Langmuir with mass transfer; single trial
Experimental: as §1

[6] = target: T2, BMP6 homodimer (mature domain of human BMP6, residues 1-132) (human, UniProt P22004 382-513); experiment: SPR, receptor binding affinity
T2 sequence: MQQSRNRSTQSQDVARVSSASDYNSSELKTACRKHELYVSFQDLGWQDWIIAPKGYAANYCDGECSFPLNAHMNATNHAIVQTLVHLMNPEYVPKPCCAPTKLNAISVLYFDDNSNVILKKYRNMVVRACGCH

BMP2/BMP6 heterodimer [7] = target: B1; experiment: SPR, receptor binding affinity
[8] = target: T2, BMP6 homodimer (mature domain of human …); experiment: SPR (BIAcore), receptor ECD immobilized, ligand flowed; 1:1 Langmuir with mass transfer
Experimental: as §2, §3

[9] = target: T2, BMP6 homodimer (mature domain of human …); experiment: SPR (BIAcore), receptor ECD immobilized, ligand flowed; KD = koff/kon
Experimental: as §2, §3

BMP2/BMP6 heterodimer [10] = target: B1; experiment: as above
Experimental: as §2, §3

[11] = target: T1, ActRII-ECD (extracellular domain of …); experiment: SPR (BIAcore), receptor ECD immobilized, ligand flowed; 1:1 Langmuir with mass transfer; single trial; remark: listed apart in the source
Experimental: as §1

[12] = target: T1, ActRII-ECD (extracellular domain of …); experiment: SPR (BIAcore), receptor ECD immobilized, ligand flowed; KD = koff/kon; single trial; remark: listed apart in the source
Experimental: as §1

[13] = target: T1, ActRII-ECD (extracellular domain of …); experiment: SPR (BIAcore), receptor ECD immobilized
[14] = target: B5; experiment: SPR (BIAcore), receptor ECD immobilized, ligand flowed; 'No Binding indicates that the interaction was not detectable'
Experimental: as §1

[15] = target: Cripto (mouse Cripto construct transfected into HEK293T cells) (mouse) (UniProt P51865); experiment: cell-based or functional assay
Chain of Cripto (mouse Cripto construct transfected into HEK293T cells) (mouse) (P51865 18-134): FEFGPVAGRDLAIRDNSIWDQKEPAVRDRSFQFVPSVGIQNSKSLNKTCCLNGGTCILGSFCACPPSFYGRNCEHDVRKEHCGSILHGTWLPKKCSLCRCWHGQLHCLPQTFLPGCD

Binder: B1
fold decrease of the free type II receptor ECD band intensity against receptor ECD alone [1]: 9 fold

B3: AB2-011 (1b2b3b4b5a6a activin/BMP-2 chimera) (ligand)
chain: MQAKHQQRKRLKSSCKRHPLYVDFSDVGWNDWIVAPPGYHAFYCHGECPFPLADHLNSTNHAIVQTLVNSVNSKIPKACCVPTKLRPSMLYYDDGQNIIKKDIQNMIVEECGCS
Kd [3]: 0.525 nM | koff [5]: 0.000339 s⁻¹ | kon [5]: 646000 M⁻¹ s⁻¹

Binder: B4
Kd [6]: 6.68 nM | koff [6]: 0.00182 s⁻¹ | kon [6]: 273000 M⁻¹ s⁻¹ | Kd (BMP2/BMP6 heterodimer [7]): 6.52 nM | koff (BMP2/BMP6 heterodimer [7]): 0.00861 s⁻¹ | kon (BMP2/BMP6 heterodimer [7]): 1.32e+06 M⁻¹ s⁻¹ | koff [8]: 0.00182 s⁻¹ | kon [8]: 273000 M⁻¹ s⁻¹ | Kd [9]: 6.68 nM | Kd (BMP2/BMP6 heterodimer [10]): 6.52 nM

Binder: B5
Kd [6]: 62.8 nM | Kd [9]: 62.8 nM

B6: AB2-008 (1b2a3a4a5a6a activin/BMP-2 chimera) (ligand)
chain: MQAKHKQRKRLKSSCKRHPLYVDFSDVGWNDWIIAPSGYHANYCEGECPSHIAGTSGSSLSFHSTLVNHYRMRGHSPFANLKSCCVPTKLRPMSMLYYDDGQNIIKKDIQNMIVEECGCS
notes: The entry includes the initiator Met
koff [11]: 0.000824 s⁻¹ | kon [11]: 2.39e+06 M⁻¹ s⁻¹ | Kd [12]: 0.344 nM | fold weaker affinity against activin-βA [13]: ~1.7 fold | binding result [14]: no binding

B7: AB2-015 (1b2a3b4b5b6a activin/BMP-2 chimera) (ligand)
chain: MQAKHKQRKRLKSSCKRHPLYVDFSDVGWNDWIIAPSGYHANYCDGECPFPLADHLNSTNHAIVQTLVNSVNSKIPKACCVPTELSAISMLYYDDGQNIIKKDIQNMIVEECGCS
Kd [3]: 0.23 nM | koff [5]: 0.000371 s⁻¹ | kon [5]: 1.61e+06 M⁻¹ s⁻¹ | fold higher binding against BMP-2 [13]: ~100 fold | binding result [14]: no binding

B8: AB2-004 (1b2a3b4b5a6a activin/BMP-2 chimera) (ligand)
chain: MQAKHKQRKRLKSSCKRHPLYVDFSDVGWNDWIIAPSGYHANYCDGECPFPLADHLNSTNHAIVQTLVNSVNSKIPKACCVPTKLRPMSMLYYDDGQNIIKKDIQNMIVEECGCS
Kd [3]: 0.381 nM | koff [5]: 0.000187 s⁻¹ | kon [5]: 491000 M⁻¹ s⁻¹

Continued, values first:

Kd [2]: 38.5 nM | Kd [3]: 36.8 nM | Kd [4]: 38.5 nM
B2: BMP2 homodimer (mature domain of human BMP2) (ligand)
chain: QAKHKQRKRLKSSCKRHPLYVDFSDVGWNDWIVAPPGYHAFYCHGECPFPLADHLNSTNHAIVQTLVNSVNSKIPKACCVPTELSAISMLYLDENEKVVLKNYQDMVVEGCGCR
notes: also called BMP-2wt; BMP-2ma

Kd [3]: 0.472 nM | koff [5]: 0.0016 s⁻¹ | kon [5]: 3.39e+06 M⁻¹ s⁻¹
B9: AB2-012 (1b2b3b4b5b6a activin/BMP-2 chimera) (ligand)
chain: MQAKHKQRKRLKSSCKRHPLYVDFSDVGWNDWIVAPPGYHAFYCHGECPFPLADHLNSTNHAIVQTLVNSVNSKIPKACCVPTELSAISMLYYDDGRNIIKKDIQNMIVEECGCS

Kd [3]: 0.203 nM | koff [5]: 0.000716 s⁻¹ | kon [5]: 3.52e+06 M⁻¹ s⁻¹ | koff [11]: 0.000716 s⁻¹ | kon [11]: 3.52e+06 M⁻¹ s⁻¹ | Kd [12]: 0.203 nM | decrease in Smad-2/3 luciferase signaling in HEK293T cells in the presence of Cripto [15]: 43% | binding result [14]: no binding
B10: Activin-βA (ligand)
chain: GLECDGKVNICCKKQFFVSFKDIGWNDWIIAPSGYHANYCEGECPSHIAGTSGSSLSFHSTVINHYRMRGHSPFANLKSCCVPTKLRPMSMLYYDDGQNIIKKDIQNMIVEECGCS
notes: also called Activin-A
